The values that follow come from patent US20130156692A1 (INDI MOLECULAR, published 2013).

Bridges are numbered along the chain shown (N, C = ends). Primed or numbered codes have the meaning given here. Where no end group is shown, it is not given here. [ ]: non-standard residue; d: D form. Tz4″ = 1,4-disubstituted 1,2,3-triazole linker between anchor and secondary ligand; Lys(N3) = [N-]=[N+]=NCCCC[C@H](N)C(=O)O

In test [1] the target is T1, human VEGF165A (#ab56620; Abcam) (human, UniProt P15692-4 27-191, biotinylated (EZ-Link Sulfo-NHS-LC-Biotinylation kit) in the competitive ELISAs of Examples 8, 9 and 16; unlabelled in the direct ELISA and the pull-down).
T1 construct: Isoform VEGF165 of VEGF-A; also called rhVEGF165; biotinylated VEGF165
T1 sequence (P15692 other isoform, or with tags, fused parts or gaps limits assumed): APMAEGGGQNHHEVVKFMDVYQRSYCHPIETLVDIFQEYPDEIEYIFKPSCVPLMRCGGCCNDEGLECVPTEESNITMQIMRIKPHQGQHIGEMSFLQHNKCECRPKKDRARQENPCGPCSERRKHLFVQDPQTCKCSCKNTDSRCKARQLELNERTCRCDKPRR
Put plainly: competitive ELISA, inhibition of biotinylated VEGF165 binding to VEGFR2-Fc; competition ELISA: blocking of biotinylated VEGF165 binding to VEGFR2-Fc; Biligand 2 tested up to 50 µM. (In general: ELISA stands for enzyme-linked immunosorbent assay.)

Test [2] deals with T1, human VEGF165A (#ab56620; Abcam). The test is described as follows: direct ELISA: VEGF165A immobilized on NUNC MaxiSorp plate, biotinylated PCC or bevacizumab (mAb or Fab) titrated, normalized to binding at saturation.
For test [3] the target is unchanged. The test is described as follows: direct ELISA, VEGF165 coated, biotinylated capture agent.
For test [4] the target is unchanged. Put plainly: direct ELISA: VEGF165 coated on the plate, biotinylated binder titrated, streptavidin poly-HRP, fluorescence normalised to saturation.
Test [5] has the same target. The test is described as follows: direct ELISA: VEGF165A immobilized on NUNC MaxiSorp plate, biotinylated peptide titrated, normalized to binding at saturation.
For test [6] the target is unchanged. The test is described as follows: competitive ELISA, inhibition of biotinylated VEGF165 binding to VEGFR2-Fc; competition ELISA: blocking of biotinylated VEGF165 binding to VEGFR2-Fc; anchor tested up to 50 µM.

B1: Biligand 2 (X-…-Tz4-Ifrew) (designed binder)
peptide: VEPNCDIHVMWEWECFERL[Tz4″][dL][dF][dR][dE][dW]
modifications: disulfide 5-15; numbers in words are those of the source; also: N-terminal group is biotin-PEG3 or acetyl, not fixed
In test [1], B1 displayed a concentration for half-maximal inhibition (IC50) of more than 50000 nM. For the same molecule, the results for the EC50 (read off the curve) in test [2] and in test [4] were 40 nM and 50 nM, respectively. Further, the fold improvement in affinity relative to the anchor ligand in test [3] amounted to 5 fold.

B2: anchor ligand X-VEPNCDIHVMWEWECFERL-Az4 (peptide)
peptide: VEPNCDIHVMWEWECFERL[Lys(N3)]
modifications: disulfide 5-15; also: N-terminal X is biotin-PEG3 or acetyl, not settled
notes: Phage display-derived peptide; also called Biotin-PEG-anchor ligand-Az4
Turning to B2, the “EC50 (read off the curve)” value was approximately 300 nM in test [5], approximately 100 nM in test [2] and approximately 100 nM in test [4]. In addition, the IC50 in test [6] is more than 50000 nM.

Usually IC50 stands for the point on the concentration scale where inhibition reaches its midpoint. A high value points to weaker potency in that assay. As a reminder, the EC50 (read off the curve) is the concentration needed to bring the measured effect to its halfway point. Low values mean greater potency, high ones weaker potency.
